Non-standard residues stand in square brackets, D forms with d. Arg(NO2) = N=C(NCCC[C@H](N)C(=O)O)N[N+](=O)[O-]
Assays:
[1] = Effect of pH value on the stability of the solution (purity); format: physicochemical; details: for Purity(%) at day 1 / Purity(%) at day 30 / Purity(%) at day 90 / Purity(%) at day 180 / Purity(%) at day 360: 5% solution; for Purity(%) from day 0-28 / Purity(%) from day 0-14: 25° C.
[2] = Effect of concentration on the stability of the solution (purity over time); details: 1 equivalent sodium acetate in 50% ethanol at 25° C.
[3] = 25% ethanol (after multiple recrystalization), pH 3.7, 25° C.
[4] = 25% ethanol with 0.5 equivalent sodium acetate, pH 3.7, 25° C.
[5] = 25% ethanol with 1 equivalent sodium acetate, pH 4.6, 25° C.
[6] = 25% ethanol with 1.5 equivalent sodium acetate, pH 5.6, 25° C.
[7] = 25% ethanol with HCl, pH 2.0, 25° C.
[8] = 25% ethanol with NaOH, pH 7, 25° C.
[9] = 25% ethanol with NaOH, pH 8, 25° C.
[10] = day 0, pH 1.0, 7% in 25% ethanol
[11] = day 0, pH 2.0, 7% in 25% ethanol
[12] = day 0, pH 3.0, 7% in 25% ethanol
[13] = day 0, pH 3.7, 7% in 25% ethanol
[14] = day 0, pH 4.0, 7% in 25% ethanol
[15] = day 0, pH 4.3, 7% in 25% ethanol
[16] = day 0, pH 4.6, 7% in 25% ethanol
[17] = day 0, pH 5.0, 7% in 25% ethanol
[18] = day 0, pH 6.0, 7% in 25% ethanol
[19] = day 0, pH 7.0, 7% in 25% ethanol
[20] = day 0, pH 8.0, 7% in 25% ethanol
[21] = day 28, pH 1.0, 7% in 25% ethanol
[22] = day 28, pH 2.0, 7% in 25% ethanol
[23] = day 28, pH 3.0, 7% in 25% ethanol
[24] = day 28, pH 3.7, 7% in 25% ethanol
[25] = day 28, pH 4.0, 7% in 25% ethanol
[26] = day 28, pH 4.3, 7% in 25% ethanol
[27] = day 28, pH 4.6, 7% in 25% ethanol
[28] = day 28, pH 5.0, 7% in 25% ethanol
[29] = day 28, pH 6.0, 7% in 25% ethanol
[30] = day 28, pH 7.0, 7% in 25% ethanol
[31] = day 28, pH 8.0, 7% in 25% ethanol

Compound: H-Tyr-Gly-Gly-Phe-Met-OCH(CH3)2•HCl salt
- Purity(%) at day 1 [1, 3]: 98.9 ± 0.2%
- Purity(%) at day 30 [1, 3]: 98.3 ± 0.2%
- Purity(%) at day 90 [1, 3]: 97.2 ± 0.1%
- Purity(%) at day 180 [1, 3]: 95.4 ± 0.1%
- Purity(%) at day 360 [1, 3]: 92.3 ± 0.2%
- Purity(%) at day 1 [1, 4]: 98.9 ± 0.1%
- Purity(%) at day 30 [1, 4]: 98.4 ± 0.1%
- Purity(%) at day 90 [1, 4]: 97.3 ± 0.2%
- Purity(%) at day 180 [1, 4]: 95.5 ± 0.2%
- Purity(%) at day 360 [1, 4]: 92.5 ± 0.2%
- Purity(%) at day 1 [1, 5]: 98.9 ± 0.2%
- Purity(%) at day 30 [1, 5]: 98.4 ± 0.2%
- Purity(%) at day 90 [1, 5]: 97.4 ± 0.2%
- Purity(%) at day 180 [1, 5]: 95.5 ± 0.2%
- Purity(%) at day 360 [1, 5]: 92.4 ± 0.2%
- Purity(%) at day 1 [1, 6]: 98.8 ± 0.2%
- Purity(%) at day 30 [1, 6]: 97.2 ± 0.2%
- Purity(%) at day 90 [1, 6]: 94.1 ± 0.1%
- Purity(%) at day 180 [1, 6]: 88.7 ± 0.2%
- Purity(%) at day 360 [1, 6]: 81.1 ± 0.3%
- Purity(%) at day 1 [1, 7]: 98.5 ± 0.1%
- Purity(%) at day 30 [1, 7]: 92.1 ± 0.2%
- Purity(%) at day 90 [1, 7]: 85.1 ± 0.2%
- Purity(%) at day 180 [1, 7]: 71.9 ± 0.2%
- Purity(%) at day 360 [1, 7]: 51.8 ± 0.2%
- Purity(%) at day 1 [1, 8]: 98.5 ± 0.3%
- Purity(%) at day 30 [1, 8]: 77.9 ± 0.2%
- Purity(%) at day 90 [1, 8]: 43.6 ± 0.2%
- Purity(%) at day 180 [1, 8]: 24.3 ± 0.3%
- Purity(%) at day 360 [1, 8]: 0%
- Purity(%) at day 1 [1, 9]: 98.2 ± 0.2%
- Purity(%) at day 30 [1, 9]: 56.2 ± 0.2%
- Purity(%) at day 90 [1, 9]: 33.3 ± 0.3%
- Purity(%) at day 180 [1, 9]: 5.8 ± 0.3%
- Purity(%) at day 360 [1, 9]: 0%
- Purity(%) at day 1 ([1]; 25% ethanol, pH 3.0, 25° C.): 98.7 ± 0.2%
- Purity(%) at day 30 ([1]; 25% ethanol, pH 3.0, 25° C.): 97.9 ± 0.2%
- Purity(%) at day 90 ([1]; 25% ethanol, pH 3.0, 25° C.): 95.1 ± 0.1%
- Purity(%) at day 180 ([1]; 25% ethanol, pH 3.0, 25° C.): 90.9 ± 0.2%
- Purity(%) at day 360 ([1]; 25% ethanol, pH 3.0, 25° C.): 82.8 ± 0.3%

Compound: CC(C)Cc1ccc([C@@H](C)C(=O)OCCC2CCNCC2)cc1.Cl (racemic) [C-8, 4-piperidineethyl (R,S)-2-(p-isobutylphenyl)propionate•HCl salt]
- Purity(%) from day 0-28 [1, 10]: 97.6 ± 0.4%
- Purity(%) from day 0-28 [1, 11]: 98.0 ± 0.3%
- Purity(%) from day 0-28 [1, 12]: 98.1 ± 0.2%
- Purity(%) from day 0-28 [1, 13]: 98.3 ± 0.3%
- Purity(%) from day 0-28 [1, 14]: 98.4 ± 0.3%
- Purity(%) from day 0-28 [1, 15]: 98.4 ± 0.2%
- Purity(%) from day 0-28 [1, 16]: 98.3 ± 0.2%
- Purity(%) from day 0-28 [1, 17]: 98.3 ± 0.4%
- Purity(%) from day 0-28 [1, 18]: 98.2 ± 0.3%
- Purity(%) from day 0-28 [1, 19]: 97.9 ± 0.3%
- Purity(%) from day 0-28 [1, 20]: 97.6 ± 0.5%
- Purity(%) from day 0-28 [1, 21]: 68.4 ± 0.4%
- Purity(%) from day 0-28 [1, 22]: 87.3 ± 0.3%
- Purity(%) from day 0-28 [1, 23]: 87.3 ± 0.3%
- Purity(%) from day 0-28 [1, 24]: 95.0 ± 0.2%
- Purity(%) from day 0-28 [1, 25]: 96.1 ± 0.3%
- Purity(%) from day 0-28 [1, 26]: 96.3 ± 0.3%
- Purity(%) from day 0-28 [1, 27]: 96.3 ± 0.2%
- Purity(%) from day 0-28 [1, 28]: 89.7 ± 0.3%
- Purity(%) from day 0-28 [1, 29]: 87.3 ± 0.3%
- Purity(%) from day 0-28 [1, 30]: 48.3 ± 0.4%
- Purity(%) from day 0-28 [1, 31]: 34.2 ± 0.3%

Compound: CCN(CC)CCOC(=O)c1ccccc1OC(C)=O.O=C(O)/C=C\C(=O)O [A-1, 2-(diethylamino)ethyl acetylsalicylate•maleic acid salt]
- Purity(%) from day 0-14 ([1]; day 14, pH 1.0, 7% in water): 59.1 ± 0.4%
- Purity(%) from day 0-14 ([1]; day 14, pH 2.0, 7% in water): 78.8 ± 0.3%
- Purity(%) from day 0-14 ([1]; day 14, pH 3.0, 7% in water): 90.9 ± 0.2%
- Purity(%) from day 0-14 ([1]; day 14, pH 3.7, 7% in water): 94.0 ± 0.3%
- Purity(%) from day 0-14 ([1]; day 14, pH 4.0, 7% in water): 94.5 ± 0.2%
- Purity(%) from day 0-14 ([1]; day 14, pH 4.3, 7% in water): 94.6 ± 0.3%
- Purity(%) from day 0-14 ([1]; day 14, pH 4.6, 7% in water): 94.3 ± 0.2%
- Purity(%) from day 0-14 ([1]; day 14, pH 5.0, 7% in water): 86.9 ± 0.3%
- Purity(%) from day 0-14 ([1]; day 14, pH 6.0, 7% in water): 78.9 ± 0.3%
- Purity(%) from day 0-14 ([1]; day 14, pH 7.0, 7% in water): 57.8 ± 0.4%
- Purity(%) from day 0-14 ([1]; day 14, pH 8.0, 7% in water): 16.1 ± 0.4%

Compound: H-Ala-Pro-Gly-Pro-Arg(NO2)—OCH2CH3•HCl (H-APGP[Arg(NO2)]-OEt; also: HCl salt)
- pH at which the solution is stable ([1]; 5% solution in 25% ethanol at 25° C.): 3-6
- Time the solution can be stored at room temperature ([1]; 5% solution in 25% ethanol, pH 3-6): about 3 months
- Purity at Day 30 ([2]; 0.01 wt %): 55.6%
- Purity at Day 90 ([2]; 0.01 wt %): 21.3%
- Purity at Day 180 ([2]; 0.01 wt %): 0%
- Purity at day 0 ([2]; 0.01 wt %): 98.3%
- Purity at Day 30 ([2]; 0.1 wt %): 65.7%
- Purity at Day 90 ([2]; 0.1 wt %): 30.2%
- Purity at Day 180 ([2]; 0.1 wt %): 8.6%
- Purity at day 0 ([2]; 0.1 wt %): 98.4%
- Purity at Day 30 ([2]; 1 wt %): 91.3%
- Purity at Day 90 ([2]; 1 wt %): 75.9%
- Purity at Day 180 ([2]; 1 wt %): 56.6%
- Purity at day 0 ([2]; 1 wt %): 98.5%
- Purity at Day 30 ([2]; 3 wt %): 96.8%
- Purity at Day 90 ([2]; 3 wt %): 92.1%
- Purity at Day 180 ([2]; 3 wt %): 85.8%
- Purity at day 0 ([2]; 3 wt %): 98.8%
- Purity at Day 30 ([2]; 5 wt %): 97.1%
- Purity at Day 90 ([2]; 5 wt %): 94.4%
- Purity at Day 180 ([2]; 5 wt %): 89.7%
- Purity at day 0 ([2]; 5 wt %): 98.9%
- Purity at Day 30 ([2]; 7 wt %): 97.5%
- Purity at Day 90 ([2]; 7 wt %): 95.0%
- Purity at Day 180 ([2]; 7 wt %): 91.3%
- Purity at day 0 ([2]; 7 wt %): 98.9%
- Purity at Day 30 ([2]; 8 wt %): 97.6%
- Purity at Day 90 ([2]; 8 wt %): 95.1%
- Purity at Day 180 ([2]; 8 wt %): 91.4%
- Purity at day 0 ([2]; 8 wt %): 98.8%
- Purity at Day 30 ([2]; 10 wt %): 97.6%
- Purity at Day 90 ([2]; 10 wt %): 95.2%
- Purity at Day 180 ([2]; 10 wt %): 91.5%
- Purity at day 0 ([2]; 10 wt %): 98.9%
- Purity at Day 30 ([2]; 15 wt %): 97.6%
- Purity at Day 90 ([2]; 15 wt %): 95.0%
- Purity at Day 180 ([2]; 15 wt %): 91.4%
- Purity at day 0 ([2]; 15 wt %): 98.8%
- Purity at Day 30 ([2]; 20 wt %): 97.5%
- Purity at Day 90 ([2]; 20 wt %): 95.1%
- Purity at Day 180 ([2]; 20 wt %): 91.5%
- Purity at day 0 ([2]; 20 wt %): 98.9%
- Purity at Day 30 ([2]; 30 wt %): 97.6%
- Purity at Day 90 ([2]; 30 wt %): 95.1%
- Purity at Day 180 ([2]; 30 wt %): 91.7%
- Purity at day 0 ([2]; 30 wt %): 98.9%
- Purity at Day 30 ([2]; 50 wt %): 97.5%
- Purity at Day 90 ([2]; 50 wt %): 95.2%
- Purity at Day 180 ([2]; 50 wt %): 91.6%
- Purity at day 0 ([2]; 50 wt %): 98.8%

Compound: CC(C)Cc1ccc([C@@H](C)C(=O)OCCN2CCCC2)cc1.Cl (racemic) [C-9, 1-pyrrolidineethyl (R,S)-2-(p-isobutylphenyl)propionate•HCl salt]
- Purity(%) from day 0-28 [1, 10]: 98.0 ± 0.3%
- Purity(%) from day 0-28 [1, 11]: 98.2 ± 0.4%
- Purity(%) from day 0-28 [1, 12]: 98.5 ± 0.3%
- Purity(%) from day 0-28 [1, 13]: 98.6 ± 0.4%
- Purity(%) from day 0-28 [1, 14]: 98.6 ± 0.3%
- Purity(%) from day 0-28 [1, 15]: 98.7 ± 0.2%
- Purity(%) from day 0-28 [1, 16]: 98.6 ± 0.3%
- Purity(%) from day 0-28 [1, 17]: 98.5 ± 0.4%
- Purity(%) from day 0-28 [1, 18]: 98.4 ± 0.5%
- Purity(%) from day 0-28 [1, 19]: 98.1 ± 0.5%
- Purity(%) from day 0-28 [1, 20]: 97.9 ± 0.5%
- Purity(%) from day 0-28 [1, 21]: 68.3 ± 0.2%
- Purity(%) from day 0-28 [1, 22]: 87.7 ± 0.3%
- Purity(%) from day 0-28 [1, 23]: 87.7 ± 0.2%
- Purity(%) from day 0-28 [1, 24]: 95.5 ± 0.3%
- Purity(%) from day 0-28 [1, 25]: 96.3 ± 0.3%
- Purity(%) from day 0-28 [1, 26]: 96.4 ± 0.2%
- Purity(%) from day 0-28 [1, 27]: 96.4 ± 0.3%
- Purity(%) from day 0-28 [1, 28]: 88.6 ± 0.3%
- Purity(%) from day 0-28 [1, 29]: 89.0 ± 0.4%
- Purity(%) from day 0-28 [1, 30]: 48.1 ± 0.3%
- Purity(%) from day 0-28 [1, 31]: 34.4 ± 0.4%
